The experiment has as its system tetA promoter (PtetA)-lacZ reporter in E. coli KM3. The class given is cell-based. To be noted: for Control 84 hr (colony color intensity, background activity without inducer): M9 assay plates, no inducer, 84 hr at 30° C., colony color intensity by ImageJ.

These results are taken from US8580556B2, “Sulfonylurea-responsive repressor proteins” (E. I. du Pont de Nemours and Company, priority 2008, dated 2013).

B1: L6-5G06 (protein)
chain: MGSRLDKSKVINSALELLNEVGIEGLTTRKLAQKLGVEQPTLYWHVKNKRALLDALAIEMMDRHQTHYCPLEGESWQDFLRNNAKSMRCALLSHRDGAKVCLGTRWTEQQYETAENQLAFLCQQGFSLENALYAVSAVRVFTLGCVLFDQELQVAKEERETPTTASMPPLLRQGWELKDHQGAEPAFLFGLELIICGLEKQLKCESGS
modifications: Sulfonylurea responsive repressor L6-5G06
Consider B1, for which the “0.2 ppm 48 hr/Control 84 hr” value is listed as 4.9 and the “Control 84 hr (colony color intensity, background activity without inducer)” value is 7.0.

B2: L6-5H12 (protein)
chain: MGSRLDKSKVINSALELLNEVGIEGLTTRKLAQKLGVEQPTLYWHVKNKRALLDALAIEMMDRHATHYCPLEGESWQDFLRNNAKSMRCALLSHRDGAKVCLGTRWTEKQYETAENQLAFLCQQGFSLENALYAMSAVRVFTLGCVLFDQELQVAKEERETPTTASMPPLVRQAWELKDHQGAEPAFLFGLELIICGLEKQLKCESGS
modifications: Sulfonylurea responsive repressor L6-5H12
On to B2, for which the “0.2 ppm 48 hr/Control 84 hr” value amounted to 4.2 and the “Control 84 hr (colony color intensity, background activity without inducer)” value was found to be 5.7.

B3: L6-5H06 (protein)
chain: MGSRLDKSKVINSALELLNEVGIEGLTTRKLAQKLGVEQPTLYWHVKNKRALLDALAIEMMDRHQTHICPLEGESWQDFLRNNAKSMRCALLSHRDGAKVCLGTRWTEKQYETAENMLAFLCQQGFSLENALYAVSAVRVFTLGCVLFDQELQVAKEERETPTTASMPPLVRQAWELKDHQGAEPAFLFGLELIICGLEKQLKCESGS
modifications: Sulfonylurea responsive repressor L6-5H06
Turning to B3, the “0.2 ppm 48 hr/Control 84 hr” value is 2.7 and the “Control 84 hr (colony color intensity, background activity without inducer)” value was determined as 5.1.

B4: L6-6F07 (protein)
chain: MGSRLDKSKVINSALELLNEVGIEGLTTRKLAQKLGVEQPTLYWHVKNKRALLDALAIEMMDRHATHLCPLEGESWQDFLRNTAKSMRCALLSHRDGAKVCLGTRWTEQQYESAENMLAFLCQQGFSLENALYAMSAVRVFTLGCVLFDQESQVAKEERETPTTASMPPLLRQAWELKDHQGAEPAFLFGLELIICGLEKQLKCESGS
modifications: Sulfonylurea responsive repressor L6-6F07
As to B4, the “0.2 ppm 48 hr/Control 84 hr” value is 2.3 and the “Control 84 hr (colony color intensity, background activity without inducer)” value is given as 5.1.
